The source of these data is patent US20140213523A1 (TIVORSAN PHARMACEUTICALS, published 2014).

This data set deals with the molecule itself. The data set is described as follows: Analytical ultracentrifugation (sedimentation velocity) at three concentrations, 20 mM Tris pH 8, 0.5 M NaCl, 20 °C; self-association of T2-rhBGN (M form to D form). As for the experimental part: FIG. 1. Analytical ultracentrifugation of HIC pool purified from CHO clone 57.
T2-rhBGN was purified from conditioned media of CHO clone 57 and 171 and HEK 293 clone 2 by a combination of anion exchange and hydrophobic interaction (HIC). Analytical ultracentrifugation (AUC) of HIC pool purified from CHO Clone 57 resolved into two sedimentation peaks: M with a sedimentation coefficient: s_{20,w}≈2.88 and D with coefficient s_{20,w}≈4.28 (FIG. 1). […] Experiments were performed at 20° C., in a Beckman Optima XL-I analytical ultracentrifuge. Spin Analytical charcoal upon 12 mm double-sector centerpieces were used in an eight-hole AN 50 Ti rotor at 45,000 rpm. Radial absorption scans were measured at λ=280 nm. Sedfit 12.44 was used for data analysis, with a 68% confidence limit (analyticalultracentrifugation.com). Sedimentation coefficients were corrected to standard s_{20,w} conditions using the experimental buffer density and buffer viscosity as calculated with […] (sednterp.unh.edu). Buffer: 20 mM Tris, pH 8, 0.5M NaCl; viscosity=0.01002 Poise; density=1.004989 g/mL. Partial specific volume, v-bar=0.74413 mL/g calculated from amino acid composition with Sednterp.

B1: T2-rhBGN (T2 recombinant human biglycan) (other)
chain: DEEAAGADTAGVLDPDSVTPTYSAMCPFGCHCHLRVVQCSDLGLKSVPKEISPDTTLLDLQNNDISELRKDDFKGLQHLYALVLVNNKISKIHEKAFSPLRKLQKLYISKNHLVEIPPNLPSSLVELRIHDNRIRKVPKGVFSGLRNMNCIEMGGNPLENSGFEPGAFDGLKLNYLRISEAKLTGIPKDLPETLNELHLDHNKIQAIELEDLLRYSKLYRLGLGHNQIRMIENGSLSFLPTLRELHLDNNKLARVPSGLPDLKLLQVVYLHSNNITKVGVNDFCPMGFGVKRAYYNGISLFNNPVPYWEVQPATFRCVTDRLAIQFGNYKK
modifications: N-linked glycans (M and D forms differ in N-glycan profile); no GAG side chains
notes: Purified from conditioned medium of CHO clone 57 by anion exchange and HIC; The pool is a mixture of the M form (generally monomeric) and the D form (generally dimeric); No tags are stated; also called HIC pool; M-rhBGN
One may read the Kd as a measure of binding affinity in units of concentration. On to B1, for which the Kd is around 50 µM.
